Experimental data as given in paper PMC9667838 (Cell Discovery, 2022).

Target: T1, Full-length human His-tagged angiotensin-converting enzyme 2 (ACE2) (human, UniProt Q9BYF1)
T1 construct: also called hACE2
Test: cryo-EM structure
Settings: both partners purified

T1 sequence (Q9BYF1 18-805): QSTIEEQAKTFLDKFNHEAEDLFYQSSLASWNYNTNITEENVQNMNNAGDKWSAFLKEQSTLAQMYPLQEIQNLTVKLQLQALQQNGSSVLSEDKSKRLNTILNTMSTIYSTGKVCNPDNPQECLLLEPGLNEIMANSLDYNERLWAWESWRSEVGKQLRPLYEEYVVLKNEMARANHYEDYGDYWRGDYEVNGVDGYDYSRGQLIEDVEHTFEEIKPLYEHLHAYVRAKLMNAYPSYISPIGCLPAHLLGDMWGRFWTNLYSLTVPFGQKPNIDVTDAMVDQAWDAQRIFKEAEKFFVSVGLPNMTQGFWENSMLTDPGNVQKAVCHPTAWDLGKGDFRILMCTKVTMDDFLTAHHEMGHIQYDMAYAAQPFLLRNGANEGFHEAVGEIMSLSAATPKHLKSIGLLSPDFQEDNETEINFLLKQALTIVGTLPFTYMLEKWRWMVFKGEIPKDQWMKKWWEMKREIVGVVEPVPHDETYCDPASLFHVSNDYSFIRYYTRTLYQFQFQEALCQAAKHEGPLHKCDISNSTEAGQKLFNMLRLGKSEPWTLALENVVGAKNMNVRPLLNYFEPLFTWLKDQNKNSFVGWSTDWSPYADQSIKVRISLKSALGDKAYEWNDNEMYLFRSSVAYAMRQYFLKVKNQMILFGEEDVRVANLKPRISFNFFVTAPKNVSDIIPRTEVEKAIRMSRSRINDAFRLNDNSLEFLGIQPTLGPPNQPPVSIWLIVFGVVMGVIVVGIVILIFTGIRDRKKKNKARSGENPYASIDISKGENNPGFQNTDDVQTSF

B1: Full-length human Flag-tagged SIT1 (SLC6A20) (natural protein)
chain: MEKARPLWANSLQFVFACISYAVGLGNVWRFPYLCQMYGGGSFLVPYIIMLIVEGMPLLYLELAVGQRMRQGSIGAWRTISPYLSGVGVASVVVSFFLSMYYNVINAWAFWYLFHSFQDPLPWSVCPLNGNHTGYDEECEKASSTQYFWYRKTLNISPSLQENGGVQWEPALCLLLAWLVVYLCILRGTESTGKVVYFTASLPYCVLIIYLIRGLTLHGATNGLMYMFTPKIEQLANPKAWINAATQIFFSLGLGFGSLIAFASYNEPSNNCQKHAIIVSLINSFTSIFASIVTFSIYGFKATFNYENCLKKVSLLLTNTFDLEDGFLTASNLEQVKGYLASAYPSKYSEMFPQIKNCSLESELDTAVQGTGLAFIVYTEAIKNMEVSQLWSVLYFFMLLMLGIGSMLGNTAAILTPLTDSKIISSHLPKEAISGLVCLVNCAIGMVFTMEAGNYWFDIFNDYAATLSLLLIVLVETIAVCYVYGLRRFESDLKAMTGRAVSWYWKVMWAGVSPLLIVSLFVFYLSDYILTGTLKYQAWDASQGQLVTKDYPAYALAVIGLLVASSTMCIPLAALGTFVQRRLKRGDADPVA
  binding result: binds
